Reference: US7977317B2, “Compositions and methods for modulating blood-brain barrier transport” (Raptor Pharmaceutical Inc., priority 2001, dated 2011)

Tests used:
LRP = LRP (Homo sapiens, UniProt Q07954); settings: Tables 1-3; cited from earlier work
LRP1B = experiment: RT-PCR after p97 treatment in MG1391 fibroblast cells: LRP1B; type: cell-based; settings: fibroblast cell line MG1391, RT-PCR (FIGS. 40 and 41)
Description: FIG. 39 show the expression of members of the LDL receptor family in MG1391. RT-PCR. RT-PCR was performed for members of the LDL-R family: LRP, LRP1B, megalin, LDL, VLDL, LRP8, LR11, LRP5 and cubulin. DNA (cDNA) synthesis was performed with 1 μg of total RNA using a cDNA one step synthesis kit (Invitrogen, USA) following the manufacturer's protocol. (1× of reaction mix, RNA 1 μg, 0.2 μM of both primers, 1 μl of RT/Platinum Tag mix). The cDNA generated was amplified using primers produced with MacVector 7.0 (Oxford molecular Ltd, Oxford, UK). All the subsequent assays were then performed under conditions that produced amplifications of cDNA within a linear range. RT inverse-transcription was performed at 50° C. for 30 min. PCR amplification for 35 or 40 cycles for all was performed as follows: denaturation at 94° C. for 30 s, annealing at 60° C. for 30 s and extension at 72° C. for 1 min. Finalisation stage was performed at 72° C. for 5 min. Tubes containing all the ingredients except templates were included in all runs and served as negative controls. The amplified PCR products were electrophoresed on a 1% agarose gel in TAE (40 mM Tris, […], 1 mM EDTA, […] Ethidum bromide) and were visualized under ultraviolet light followed by densitrometric analysis.

BBCEC monolayers = experiment: Sucrose permeability of BBCEC monolayers (in vitro BBB model) in the presence of p97; type: cell-based, bovine
Description: FIG. 2. Effect of p97 (1 μm) on sucrose permeability with BBCECs that were preincubated for 2 hrs at 37° C. The effect of p97 at 1 μM on sucrose permeability of the in vitro BBB model was tested. The permeability coefficient (Pe) for sucrose was calculated as previously described (Dehouck, et al., J. Neurochem., 58:1790-179 (1992)) using filters coated or non-coated with BBCE cells. Briefly, coated or non-coated filters with BBCE cells were transferred to 6-well plates containing 2 ml of Ringer/Hepes per well (basolateral compartment) for 2 hrs at 37° C. In each apical (i.e., luminal) chamber, the culture medium was replaced by 1 ml Ringer/Hepes containing labeled [^14C]-sucrose. […] At the end of the experiments, amounts of the radiotracers in the basolateral (i.e., abluminal) compartment were measured in a liquid scintillation counter. The permeability coefficient (Pe) was calculated as described in FIG. 1.
FIG. 14 illustrates the stability of p97 and integrity of the BBCEC monolayers following p97 transcytosis. […] The gels were dried and scanned to quantify the amount of intact p97 that crossed the BBCEC monolayers at 37° C. and 4° C. […]
D. Sucrose permeability. The permeability coefficient for sucrose was measured to verify the endothelial permeability and the integrity and tightness of the BBCEC monolayers, as previously described, using uncoated filters or coated with endothelial cells. […]

Chain of LRP (Q07954 20-4544): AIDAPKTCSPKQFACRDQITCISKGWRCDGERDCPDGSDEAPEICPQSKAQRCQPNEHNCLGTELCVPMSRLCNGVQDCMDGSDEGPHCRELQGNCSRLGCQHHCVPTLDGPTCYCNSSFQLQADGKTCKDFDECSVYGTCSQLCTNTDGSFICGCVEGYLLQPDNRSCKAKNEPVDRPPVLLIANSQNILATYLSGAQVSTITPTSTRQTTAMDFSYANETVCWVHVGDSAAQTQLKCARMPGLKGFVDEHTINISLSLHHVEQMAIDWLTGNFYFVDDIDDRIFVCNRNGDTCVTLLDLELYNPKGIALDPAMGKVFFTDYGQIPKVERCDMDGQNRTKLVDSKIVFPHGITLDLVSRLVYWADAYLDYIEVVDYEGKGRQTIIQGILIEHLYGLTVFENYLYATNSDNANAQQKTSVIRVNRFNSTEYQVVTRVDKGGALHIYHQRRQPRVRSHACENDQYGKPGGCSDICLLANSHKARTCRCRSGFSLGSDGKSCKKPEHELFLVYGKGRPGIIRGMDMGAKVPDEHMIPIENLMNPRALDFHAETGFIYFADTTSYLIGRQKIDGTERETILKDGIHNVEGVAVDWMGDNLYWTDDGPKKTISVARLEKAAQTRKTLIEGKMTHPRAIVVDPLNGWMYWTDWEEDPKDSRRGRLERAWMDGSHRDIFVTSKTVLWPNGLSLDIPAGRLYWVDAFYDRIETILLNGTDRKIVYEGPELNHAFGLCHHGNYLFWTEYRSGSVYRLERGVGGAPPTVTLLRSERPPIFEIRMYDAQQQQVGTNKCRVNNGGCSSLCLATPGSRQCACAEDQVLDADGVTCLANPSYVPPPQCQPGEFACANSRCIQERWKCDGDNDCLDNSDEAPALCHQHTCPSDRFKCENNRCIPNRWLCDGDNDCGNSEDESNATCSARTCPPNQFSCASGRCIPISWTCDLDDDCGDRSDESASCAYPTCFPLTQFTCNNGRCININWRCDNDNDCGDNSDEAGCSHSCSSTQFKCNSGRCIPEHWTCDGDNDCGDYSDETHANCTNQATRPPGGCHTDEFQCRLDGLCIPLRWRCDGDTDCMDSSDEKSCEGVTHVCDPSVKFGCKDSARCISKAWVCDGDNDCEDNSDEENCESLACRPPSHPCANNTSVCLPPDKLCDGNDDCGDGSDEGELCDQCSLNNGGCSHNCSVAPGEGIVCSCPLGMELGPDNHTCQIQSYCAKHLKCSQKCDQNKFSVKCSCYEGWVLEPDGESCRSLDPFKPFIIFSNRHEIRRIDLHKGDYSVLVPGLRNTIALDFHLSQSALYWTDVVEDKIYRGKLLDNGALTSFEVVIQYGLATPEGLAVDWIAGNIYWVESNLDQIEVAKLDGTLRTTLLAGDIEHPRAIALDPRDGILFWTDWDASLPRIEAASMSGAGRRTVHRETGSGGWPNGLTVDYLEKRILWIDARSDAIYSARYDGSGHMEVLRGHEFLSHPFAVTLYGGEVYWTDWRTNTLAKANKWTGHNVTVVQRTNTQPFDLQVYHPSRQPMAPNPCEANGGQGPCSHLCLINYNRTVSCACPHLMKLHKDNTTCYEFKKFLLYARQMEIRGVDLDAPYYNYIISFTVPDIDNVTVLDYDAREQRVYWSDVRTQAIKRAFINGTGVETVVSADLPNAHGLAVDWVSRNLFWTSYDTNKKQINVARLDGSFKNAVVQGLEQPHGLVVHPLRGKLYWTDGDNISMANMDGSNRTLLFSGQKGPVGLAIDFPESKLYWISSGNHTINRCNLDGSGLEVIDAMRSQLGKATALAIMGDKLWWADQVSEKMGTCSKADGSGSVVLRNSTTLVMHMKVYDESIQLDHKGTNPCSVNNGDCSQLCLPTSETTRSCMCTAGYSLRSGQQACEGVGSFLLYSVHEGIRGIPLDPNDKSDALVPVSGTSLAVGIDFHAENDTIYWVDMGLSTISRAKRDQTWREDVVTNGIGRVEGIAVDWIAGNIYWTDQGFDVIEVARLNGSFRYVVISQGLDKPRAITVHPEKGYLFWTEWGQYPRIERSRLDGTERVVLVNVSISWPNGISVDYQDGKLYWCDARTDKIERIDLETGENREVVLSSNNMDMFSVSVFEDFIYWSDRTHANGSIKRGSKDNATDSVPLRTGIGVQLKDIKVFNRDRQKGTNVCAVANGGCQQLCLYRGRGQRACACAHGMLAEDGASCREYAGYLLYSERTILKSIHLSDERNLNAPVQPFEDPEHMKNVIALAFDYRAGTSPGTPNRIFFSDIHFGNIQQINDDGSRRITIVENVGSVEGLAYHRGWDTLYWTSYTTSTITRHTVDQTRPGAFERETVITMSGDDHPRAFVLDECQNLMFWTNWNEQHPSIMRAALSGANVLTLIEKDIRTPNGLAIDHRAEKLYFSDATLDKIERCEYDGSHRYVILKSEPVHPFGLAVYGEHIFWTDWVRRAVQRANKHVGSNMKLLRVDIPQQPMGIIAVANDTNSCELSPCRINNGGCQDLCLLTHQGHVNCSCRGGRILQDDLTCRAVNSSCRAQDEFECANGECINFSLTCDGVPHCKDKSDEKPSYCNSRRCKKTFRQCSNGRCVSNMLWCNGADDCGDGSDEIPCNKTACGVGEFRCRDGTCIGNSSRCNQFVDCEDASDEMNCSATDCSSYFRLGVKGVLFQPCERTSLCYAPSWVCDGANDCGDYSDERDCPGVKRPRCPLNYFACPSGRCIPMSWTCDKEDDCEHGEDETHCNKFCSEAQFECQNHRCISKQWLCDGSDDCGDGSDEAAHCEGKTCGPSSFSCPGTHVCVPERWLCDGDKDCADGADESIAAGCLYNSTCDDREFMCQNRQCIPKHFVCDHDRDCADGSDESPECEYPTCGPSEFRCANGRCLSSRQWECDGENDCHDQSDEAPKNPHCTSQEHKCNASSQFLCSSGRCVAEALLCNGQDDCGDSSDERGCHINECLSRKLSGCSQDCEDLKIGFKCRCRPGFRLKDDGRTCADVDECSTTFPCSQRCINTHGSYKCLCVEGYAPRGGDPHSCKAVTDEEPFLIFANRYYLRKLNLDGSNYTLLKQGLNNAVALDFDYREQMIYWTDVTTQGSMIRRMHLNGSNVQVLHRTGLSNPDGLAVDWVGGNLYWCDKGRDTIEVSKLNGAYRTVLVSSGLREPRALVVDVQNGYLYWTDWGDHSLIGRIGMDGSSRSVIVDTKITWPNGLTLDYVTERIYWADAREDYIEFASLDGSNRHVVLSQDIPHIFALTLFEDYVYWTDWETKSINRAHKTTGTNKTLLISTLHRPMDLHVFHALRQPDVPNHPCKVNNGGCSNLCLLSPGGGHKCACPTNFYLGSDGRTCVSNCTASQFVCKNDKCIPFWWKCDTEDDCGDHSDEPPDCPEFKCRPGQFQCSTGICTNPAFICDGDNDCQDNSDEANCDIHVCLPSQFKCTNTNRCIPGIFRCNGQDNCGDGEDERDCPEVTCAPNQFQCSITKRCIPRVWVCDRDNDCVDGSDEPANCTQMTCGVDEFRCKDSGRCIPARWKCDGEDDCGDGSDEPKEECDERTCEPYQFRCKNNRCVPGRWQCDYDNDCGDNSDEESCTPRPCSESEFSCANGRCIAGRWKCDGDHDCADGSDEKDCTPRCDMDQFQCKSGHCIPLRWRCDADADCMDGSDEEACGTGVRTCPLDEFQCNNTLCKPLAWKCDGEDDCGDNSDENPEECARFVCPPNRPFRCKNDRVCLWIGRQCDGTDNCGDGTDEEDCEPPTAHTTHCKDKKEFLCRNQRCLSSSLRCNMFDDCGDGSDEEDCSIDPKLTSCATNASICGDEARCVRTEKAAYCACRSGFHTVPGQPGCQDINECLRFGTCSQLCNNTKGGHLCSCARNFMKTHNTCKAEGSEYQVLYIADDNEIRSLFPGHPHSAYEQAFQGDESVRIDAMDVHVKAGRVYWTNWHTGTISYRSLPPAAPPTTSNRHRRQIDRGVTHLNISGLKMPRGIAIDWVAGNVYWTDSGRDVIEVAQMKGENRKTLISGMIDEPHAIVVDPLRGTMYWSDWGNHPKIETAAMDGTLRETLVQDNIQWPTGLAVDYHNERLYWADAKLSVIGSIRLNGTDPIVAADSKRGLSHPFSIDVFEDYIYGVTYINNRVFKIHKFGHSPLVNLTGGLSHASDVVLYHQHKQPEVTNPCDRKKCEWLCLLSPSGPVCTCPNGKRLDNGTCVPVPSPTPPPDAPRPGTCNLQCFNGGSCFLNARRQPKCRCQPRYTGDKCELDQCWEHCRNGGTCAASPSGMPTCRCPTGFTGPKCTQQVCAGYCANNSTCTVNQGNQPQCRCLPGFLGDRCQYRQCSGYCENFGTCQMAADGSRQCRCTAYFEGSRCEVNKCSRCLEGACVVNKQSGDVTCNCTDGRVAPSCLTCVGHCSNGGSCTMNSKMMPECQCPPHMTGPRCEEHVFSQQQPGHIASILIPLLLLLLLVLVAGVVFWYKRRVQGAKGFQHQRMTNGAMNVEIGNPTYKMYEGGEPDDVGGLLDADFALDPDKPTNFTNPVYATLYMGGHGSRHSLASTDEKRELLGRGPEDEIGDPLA

B1: lactoferrin: lactoferrin (Lf), LRP ligand used as competitor (protein, UniProt P02788 20-710, looked up)
Lactotransferrin: GRRRSVQWCAVSQPEATKCFQWQRNMRKVRGPPVSCIKRDSPIQCIQAIAENRADAVTLDGGFIYEAGLAPYKLRPVAAEVYGTERQPRTHYYAVAVVKKGGSFQLNELQGLKSCHTGLRRTAGWNVPIGTLRPFLNWTGPPEPIEAAVARFFSASCVPGADKGQFPNLCRLCAGTGENKCAFSSQEPYFSYSGAFKCLRDGAGDVAFIRESTVFEDLSDEAERDEYELLCPDNTRKPVDKFKDCHLARVPSHAVVARSVNGKEDAIWNLLRQAQEKFGKDKSPKFQLFGSPSGQKDLLFKDSAIGFSRVPPRIDSGLYLGSGYFTAIQNLRKSEEEVAARRARVVWCAVGEQELRKCNQWSGLSEGSVTCSSASTTEDCIALVLKGEADAMSLDGGYVYTAGKCGLVPVLAENYKSQQSSDPDPNCVDRPVEGYLAVAVVRRSDTSLTWNSVKGKKSCHTAVDRTAGWNIPMGLLFNQTGSCKFDEYFSQSCAPGSDPRSNLCALCIGDEQGENKCVPNSNERYYGYTGAFRCLAENAGDVAFVKDVTVLQNTDGNNNEAWAKDLKLADFALLCLDGKRKPVTEARSCHLAMAPNHAVVSRMDKVERLKQVLLHQQAKFGRNGSDCPDKFCLFQSETKNLLFNDNTECLARLHGKTTYEKYLGPQYVAGITNLKKCSTSPLLEACEFLRK
LRP
  Binding to LRP: Yes

B2: p97: recombinant human melanotransferrin (p97), provided by Synapse Technologies (protein, UniProt P08582 20-709, looked up)
Melanotransferrin: GMEVRWCATSDPEQHKCGNMSEAFREAGIQPSLLCVRGTSADHCVQLIAAQEADAITLDGGAIYEAGKEHGLKPVVGEVYDQEVGTSYYAVAVVRRSSHVTIDTLKGVKSCHTGINRTVGWNVPVGYLVESGRLSVMGCDVLKAVSDYFGGSCVPGAGETSYSESLCRLCRGDSSGEGVCDKSPLERYYDYSGAFRCLAEGAGDVAFVKHSTVLENTDGKTLPSWGQALLSQDFELLCRDGSRADVTEWRQCHLARVPAHAVVVRADTDGGLIFRLLNEGQRLFSHEGSSFQMFSSEAYGQKDLLFKDSTSELVPIATQTYEAWLGHEYLHAMKGLLCDPNRLPPYLRWCVLSTPEIQKCGDMAVAFRRQRLKPEIQCVSAKSPQHCMERIQAEQVDAVTLSGEDIYTAGKTYGLVPAAGEHYAPEDSSNSYYVVAVVRRDSSHAFTLDELRGKRSCHAGFGSPAGWDVPVGALIQRGFIRPKDCDVLTAVSEFFNASCVPVNNPKNYPSSLCALCVGDEQGRNKCVGNSQERYYGYRGAFRCLVENAGDVAFVRHTTVFDNTNGHNSEPWAAELRSEDYELLCPNGARAEVSQFAACNLAQIPPHAVMVRPDTNIFTVYGLLDKAQDLFGDDHNKNGFKMFDSSNYHGQDLLFKDATVRAVPVGEKTTYRGWLGLDYVAALEGMSSQQC
LRP1B
  Expression of LRP1B in MG1391 cells: particularly induces the expression
BBCEC monolayers; 1 micromolar p97 (FIG. 2)
  Change in sucrose permeability by p97: no significant change
BBCEC monolayers; high concentration of p97 (FIG. 14c)
  Clearance of sucrose in the presence of p97: No significant increase
